Consider five molecules from article PMC12767347 (bioRxiv, 2025).

The series “SEC” deals with the molecule itself. The series can be described thus: SEC.
For series [1], the target named is T1, HA-tagged PNPase (catalytically active) (M. smegmatis, UniProt A0QVQ5 1-763).
T1 sequence: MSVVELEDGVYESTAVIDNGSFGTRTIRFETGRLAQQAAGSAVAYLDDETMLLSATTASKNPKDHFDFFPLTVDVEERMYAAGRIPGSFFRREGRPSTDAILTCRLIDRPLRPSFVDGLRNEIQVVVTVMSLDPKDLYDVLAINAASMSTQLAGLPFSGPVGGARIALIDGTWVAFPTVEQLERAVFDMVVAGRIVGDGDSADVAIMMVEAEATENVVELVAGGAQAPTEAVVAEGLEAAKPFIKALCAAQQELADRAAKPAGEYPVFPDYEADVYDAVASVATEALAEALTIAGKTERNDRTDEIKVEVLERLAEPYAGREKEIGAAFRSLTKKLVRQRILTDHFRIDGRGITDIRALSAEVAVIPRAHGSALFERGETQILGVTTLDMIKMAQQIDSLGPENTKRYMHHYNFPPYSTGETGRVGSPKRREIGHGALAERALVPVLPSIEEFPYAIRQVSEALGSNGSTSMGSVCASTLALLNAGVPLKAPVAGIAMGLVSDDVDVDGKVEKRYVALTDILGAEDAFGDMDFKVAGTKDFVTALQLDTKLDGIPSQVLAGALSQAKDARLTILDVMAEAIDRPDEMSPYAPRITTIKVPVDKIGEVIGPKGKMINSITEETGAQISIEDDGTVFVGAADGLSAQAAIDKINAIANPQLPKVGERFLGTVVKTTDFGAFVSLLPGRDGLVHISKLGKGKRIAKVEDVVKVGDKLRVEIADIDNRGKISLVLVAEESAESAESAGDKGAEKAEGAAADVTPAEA
The experiment in a line: co-IP.

Series [2] concerns the target T2, untagged PNPase (catalytically active) (M. smegmatis, UniProt A0QVQ5 1-763).
T2 sequence: T1 sequence
The series can be described thus: co-IP.

Series [3] deals with T1, HA-tagged PNPase (catalytically active). The experiment in a line: co-IP. The source holds these as a separate data set.

Where “and” joins values, the source holds several entries; their conditions need not be identical. Equal entries are not always repeated. Where two headings read alike, the source gives them in different places.

By stoichiometry N is commonly meant a count of units in the complex or per binding partner.

B1: catalytically dead RNase E C-terminal IDR deletion (retaining AA 2-823), N-terminal 6x-His and FLAG tagged (domain or fragment)
chain: AEDAHTEDLSTQTPQQEGLPERLRVHSLARVLGTTSRRVLDALAEFDGRQRSAHSTVDKADAERVRAALTESPAAETPPEEAPAAETPVADLVVVQAEQVEVVTVSEAGPAEPAEPAEPEAPAAEAEAEAETEVADEAETPEPTFRGAVLVGDEPESRLILEHANIPPARETQTERPDYLPLFVAPQPVSFEPAVVDDEDEDDDTETGAESDFDSGADSDSDDDQADRPRRRRRGRRGRGRGRGEQNDDATSDADTDSTEDQTDGDEQESGEDSDDSGDEDSTTTEGGTRRRRRRRRRKSGSGDSDDAVSPDDPPNTVVHERAPRTERSDKSDDSEIQGISGSTRLEAKRQRRRDGRDAGRRRPPILSEAEFLARREAVERTMIVRDKVRTEPPHEGARYTQIAVLEDGVVVEHFVTSAASASLVGNIYLGIVQNVLPSMEAAFVDIGRGRNGVLYAGEVNWEAAGLGGQNRKIEQALKPGDYVVVQVSKDPVGHKGARLTTQVSLAGRYLVYVPGASSTGISRKLPDTERQRLKEILREVVPSDAGVIIRTASEGVKEEDIRSDVERLQKRWSEIEAKAAEVTEKKAGAAVALYEEPDVLVKVIRDLFNEDFSSLIVSGDEAWNTINSYVEAVAPDLMPRLTKYEPAGPDAPDVFAVHRIDEQLAKAMDRKVWLPSGGTLVIDRTEAMTVVRVNTGKFTGSGGNLEQTVTRNNLEAAEEIVRQLRLRDIGGIVVIRFIDMVLESNRDLVLRRLTEALARDRTRHQVSEVTSLGLVQLTRKRLGTGLVEAFSTACTHCGGRGIVLHGDPIDSASSNGGRKSD
Consider B1, for which, in the series “SEC”, the “stoichiometry N” value was 2 and 4.

B2: catalytically dead RNase E N-terminal IDR deletion (retaining AA 330-1037), N-terminal 6x-His and FLAG tagged (domain or fragment)
chain: SDKSDDSEIQGISGSTRLEAKRQRRRDGRDAGRRRPPILSEAEFLARREAVERTMIVRDKVRTEPPHEGARYTQIAVLEDGVVVEHFVTSAASASLVGNIYLGIVQNVLPSMEAAFVDIGRGRNGVLYAGEVNWEAAGLGGQNRKIEQALKPGDYVVVQVSKDPVGHKGARLTTQVSLAGRYLVYVPGASSTGISRKLPDTERQRLKEILREVVPSDAGVIIRTASEGVKEEDIRSDVERLQKRWSEIEAKAAEVTEKKAGAAVALYEEPDVLVKVIRDLFNEDFSSLIVSGDEAWNTINSYVEAVAPDLMPRLTKYEPAGPDAPDVFAVHRIDEQLAKAMDRKVWLPSGGTLVIDRTEAMTVVRVNTGKFTGSGGNLEQTVTRNNLEAAEEIVRQLRLRDIGGIVVIRFIDMVLESNRDLVLRRLTEALARDRTRHQVSEVTSLGLVQLTRKRLGTGLVEAFSTACTHCGGRGIVLHGDPIDSASSNGGRKSDSSGGGGSGGGRRGKRGKKGAARTEEVHVAKVPDHTPGEHPMFKAMAAANGKHEGDEDHEDHEDHETAEDTTAAEVRDDTRDEHDADERAHVVTAAVGAAGDEDLDDSDEDSDLDSDEESDDESDEDEIELDDDEDELDEDIEVIGDSDDSDDSDDSDEDDDSDDSDDDSDEDEDSDSDEDEEPVREVYEPPVTAPRARVRRRAAARPAGPPSHD
In the case of B2, in series [1], the binding result is “binds”. Besides, the “stoichiometry N” value in the series “SEC” is 2 and 4.

B3: catalytically dead full-length RNase E (D694R, D738R), N-terminal 6x-His and FLAG tagged (enzyme)
chain: MAEDAHTEDLSTQTPQQEGLPERLRVHSLARVLGTTSRRVLDALAEFDGRQRSAHSTVDKADAERVRAALTESPAAETPPEEAPAAETPVADLVVVQAEQVEVVTVSEAGPAEPAEPAEPEAPAAEAEAEAETEVADEAETPEPTFRGAVLVGDEPESRLILEHANIPPARETQTERPDYLPLFVAPQPVSFEPAVVDDEDEDDDTETGAESDFDSGADSDSDDDQADRPRRRRRGRRGRGRGRGEQNDDATSDADTDSTEDQTDGDEQESGEDSDDSGDEDSTTTEGGTRRRRRRRRRKSGSGDSDDAVSPDDPPNTVVHERAPRTERSDKSDDSEIQGISGSTRLEAKRQRRRDGRDAGRRRPPILSEAEFLARREAVERTMIVRDKVRTEPPHEGARYTQIAVLEDGVVVEHFVTSAASASLVGNIYLGIVQNVLPSMEAAFVDIGRGRNGVLYAGEVNWEAAGLGGQNRKIEQALKPGDYVVVQVSKDPVGHKGARLTTQVSLAGRYLVYVPGASSTGISRKLPDTERQRLKEILREVVPSDAGVIIRTASEGVKEEDIRSDVERLQKRWSEIEAKAAEVTEKKAGAAVALYEEPDVLVKVIRDLFNEDFSSLIVSGDEAWNTINSYVEAVAPDLMPRLTKYEPAGPDAPDVFAVHRIDEQLAKAMDRKVWLPSGGTLVIDRTEAMTVVRVNTGKFTGSGGNLEQTVTRNNLEAAEEIVRQLRLRDIGGIVVIRFIDMVLESNRDLVLRRLTEALARDRTRHQVSEVTSLGLVQLTRKRLGTGLVEAFSTACTHCGGRGIVLHGDPIDSASSNGGRKSDSSGGGGSGGGRRGKRGKKGAARTEEVHVAKVPDHTPGEHPMFKAMAAANGKHEGDEDHEDHEDHETAEDTTAAEVRDDTRDEHDADERAHVVTAAVGAAGDEDLDDSDEDSDLDSDEESDDESDEDEIELDDDEDELDEDIEVIGDSDDSDDSDDSDEDDDSDDSDDDSDEDEDSDSDEDEEPVREVYEPPVTAPRARVRRRAAARPAGPPSHD
As to B3, the “stoichiometry N” value in the series “SEC” worked out at 4.

B4: HA-tagged RNase J (catalytically active) (enzyme)
chain: MSAELAPPPPLAPGGLRVTALGGISEIGRNMTVFEHLGRLLIVDCGVLFPGHDEPGVDLILPDLRHIEDRLDEIEALVVTHAHEDHIGAIPFLLKLRPDIPVVGSKFTIALVREKCREHRLKPKFVEVAERQSSQHGVFECEYFAVNHSIPGCLAVAIHTGAGTVLHTGDIKLDQLPLDGRPTDLPGMSRLGDAGVDLFLCDSTNSEHPGVSPSESEVGPTLHRLIRGAEGRVIVACFASNVDRVQQIIDAAVALGRRVSFVGRSMVRNMGIARELGYLKVDDSDILDIAAAEMMPPDRVVLITTGTQGEPMAALSRMSRGEHRSITLTSGDLIILSSSLIPGNEEAVYGVIDSLSKIGARVVTNAQARVHVSGHAYAGELLFLYNGVRPRNVMPVHGTWRHLRANAALAASTGVPPENIVLAENGVSVDLVAGRASISGAVTVGKMFVDGLITGDVGDATLGERLILSSGFVSITVVVHRGTGRPAGPAHLISRGFSEDPKALEPVAQKVERELEALAADNVTDPTRIAQAVRRTVGKWVGETYRRQPMIVPTVIEI
With B4, the binding result in series [2] is on record as “binds”.

B5: untagged RNase J (catalytically active) (enzyme)
chain: B4 chain
In the case of B5, in series [3], the binding result was “binds”.
